Results: patent publication US20220135701A1 (Genentech, published 2022)

T1: mouse MerTK on mouse macrophages (mouse, UniProt Q60805 19-994)
T1 sequence (looked up): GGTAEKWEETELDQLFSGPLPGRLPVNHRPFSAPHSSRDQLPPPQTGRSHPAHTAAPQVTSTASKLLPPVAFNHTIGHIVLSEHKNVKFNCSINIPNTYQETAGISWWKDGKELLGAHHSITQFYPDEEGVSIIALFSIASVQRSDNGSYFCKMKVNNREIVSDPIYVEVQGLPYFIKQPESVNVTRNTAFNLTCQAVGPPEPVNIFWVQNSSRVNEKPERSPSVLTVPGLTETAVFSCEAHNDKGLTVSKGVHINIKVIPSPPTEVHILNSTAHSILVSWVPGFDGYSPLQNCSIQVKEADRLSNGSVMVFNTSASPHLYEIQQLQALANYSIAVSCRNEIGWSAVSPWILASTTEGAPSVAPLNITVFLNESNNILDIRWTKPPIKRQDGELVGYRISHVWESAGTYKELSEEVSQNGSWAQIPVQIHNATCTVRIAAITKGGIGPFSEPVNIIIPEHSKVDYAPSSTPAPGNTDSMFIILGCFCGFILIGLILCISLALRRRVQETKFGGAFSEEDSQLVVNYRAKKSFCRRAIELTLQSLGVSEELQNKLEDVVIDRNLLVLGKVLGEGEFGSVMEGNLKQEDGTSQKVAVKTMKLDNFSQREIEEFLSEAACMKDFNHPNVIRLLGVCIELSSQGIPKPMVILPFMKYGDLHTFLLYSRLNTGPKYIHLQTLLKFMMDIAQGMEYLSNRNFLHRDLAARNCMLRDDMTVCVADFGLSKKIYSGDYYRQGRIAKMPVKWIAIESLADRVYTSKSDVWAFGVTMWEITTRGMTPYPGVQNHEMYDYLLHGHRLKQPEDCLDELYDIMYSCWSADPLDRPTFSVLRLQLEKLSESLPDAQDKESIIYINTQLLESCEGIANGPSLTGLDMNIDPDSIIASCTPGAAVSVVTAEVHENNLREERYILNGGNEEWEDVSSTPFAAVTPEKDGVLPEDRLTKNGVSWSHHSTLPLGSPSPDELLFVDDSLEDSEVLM

B1: anti-MerTK 14C9 (mIgG2a LALAPG) (antibody, V domains shown)
VH: QSVEESGGRLVTPGTPLTLTCTVSGIDLSANTMNWVRQAPGKGLEWIGIFTATGSTYYATWVNGRFTISKTSTTVDLKITSPTTEDTATYFCARSGSGSSSGAFNIWGPGTLVTVSL
VL: DPVLTQTPASVSEPVGGTVTIKCQASQSISSSLAWYQQKPGQPPKLLIYAASILASEISSRFKGSRSGTEFTLTISDLECADAATYYCQCTSYGSLFLGPFGGGTEVVVK

Tests used:
Assay in all cases: cell-based or functional assay
[1] = biological target: T1, mouse MerTK on mouse macrophages
[2] = biological target: T1, mouse MerTK on mouse macrophages; remark: listed apart in the source
[3] = biological target: T1, mouse MerTK on mouse macrophages; remark: listed apart in the source

Row | Molecule | pAKT levels in macrophages incubated with the ligand [1] [pM] | fold decrease in phagocytic clearance of apoptotic thymocytes by peritoneal macrophages, against control anti-gp120 [2] [fold] | fold potency in inhibiting mouse macrophage phagocytosis, against h10F7.v16 [2] [fold] | IC50 (nM), efferocytosis by mouse macrophages, Average [3] [nM]
1 | recombinant human GAS6-Fc protein (from UniProt Q14393 31-678) (Fc fusion) | 84 | – | – | –
2 | B1 | – | ~8 | 4.8 | 0.19
